B1: E3 ubiquitin-protein ligase Midline-1 (Homo sapiens), O15344 (parent)
chain: METLESELTCPICLELFEDPLLLPCAHSLCFNCAHRILVSHCATNESVESITAFQCPTCRHVITLSQRGLDGLKRNVTLQNIIDRFQKASVSGPNSPSETRRERAFDANTMTSAEKVLCQFCDQDPAQDAVKTCVTCEVSYCDECLKATHPNKKPFTGHRLIEPIPDSHIRGLMCLEHEDEKVNMYCVTDDQLICALCKLVGRHRDHQVAALSERYDKLKQNLESNLTNLIKRNTELETLLAKLIQTCQHVEVNASRQEAKLTEECDLLIEIIQQRRQIIGTKIKEGKVMRLRKLAQQIANCKQCIERSASLISQAEHSLKENDHARFLQTAKNITERVSMATASSQVLIPEINLNDTFDTFALDFSREKKLLECLDYLTAPNPPTIREELCTASYDTITVHWTSDDEFSVVSYELQYTIFTGQANVVSLCNSADSWMIVPNIKQNHYTVHGLQSGTKYIFMVKAINQAGSRSSEPGKLKTNSQPFKLDPKSAHRKLKVSHDNLTVERDESSSKKSHTPERFTSQGSYGVAGNVFIDSGRHYWEVVISGSTWYAIGLAYKSAPKHEWIGKNSASWALCRCNNNWVVRHNSKEIPIEPAPHLRRVGILLDYDNGSIAFYDALNSIHLYTFDVAFAQPVCPTFTVWNKCLTIITGLPIPDHLDCTEQLP
partner: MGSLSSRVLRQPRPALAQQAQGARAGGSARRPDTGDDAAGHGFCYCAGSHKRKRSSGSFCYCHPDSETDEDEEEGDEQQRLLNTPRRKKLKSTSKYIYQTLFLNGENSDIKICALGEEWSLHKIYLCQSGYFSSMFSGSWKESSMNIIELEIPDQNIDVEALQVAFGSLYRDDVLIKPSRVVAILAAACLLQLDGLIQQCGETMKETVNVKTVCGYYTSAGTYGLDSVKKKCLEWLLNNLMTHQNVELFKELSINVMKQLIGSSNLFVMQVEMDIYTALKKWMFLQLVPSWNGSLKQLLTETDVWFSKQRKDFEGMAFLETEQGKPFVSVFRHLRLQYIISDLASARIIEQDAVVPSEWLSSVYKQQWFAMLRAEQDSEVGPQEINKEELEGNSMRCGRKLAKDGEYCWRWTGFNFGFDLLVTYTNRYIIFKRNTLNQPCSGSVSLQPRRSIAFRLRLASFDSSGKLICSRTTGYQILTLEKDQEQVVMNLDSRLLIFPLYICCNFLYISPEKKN
B2: Probetacellulin (Homo sapiens), P35070 (parent)
chain: MDRAARCSGASSLPLLLALALGLVILHCVVADGNSTRSPETNGLLCGDPEENCAATTTQSKRKGHFSRCPKQYKHYCIKGRCRFVVAEQTPSCVCDEGYIGARCERVDLFYLRGDRGQILVICLIAVMVVFIILVIGVCTCCHPLRKRRKRKKKEEEMETLGKDITPINEDIEETNIA
B3: Homeobox protein SIX1 (Homo sapiens), Q15475 (parent)
chain: MSMLPSFGFTQEQVACVCEVLQQGGNLERLGRFLWSLPACDHLHKNESVLKAKAVVAFHRGNFRELYKILESHQFSPHNHPKLQQLWLKAHYVEAEKLRGRPLGAVGKYRVRRKFPLPRTIWDGEETSYCFKEKSRGVLREWYAHNPYPSPREKRELAEATGLTTTQVSNWFKNRRQRDRAAEAKERENTENNNSSSNKQNQLSPLEGGKPLMSSSEEEFSPPQSPDQNSVLLLQGNMGHARSSNYSLPGLTASQPSHGLQTHQHQLQDSLLGPLTSSLVDLGS
partner: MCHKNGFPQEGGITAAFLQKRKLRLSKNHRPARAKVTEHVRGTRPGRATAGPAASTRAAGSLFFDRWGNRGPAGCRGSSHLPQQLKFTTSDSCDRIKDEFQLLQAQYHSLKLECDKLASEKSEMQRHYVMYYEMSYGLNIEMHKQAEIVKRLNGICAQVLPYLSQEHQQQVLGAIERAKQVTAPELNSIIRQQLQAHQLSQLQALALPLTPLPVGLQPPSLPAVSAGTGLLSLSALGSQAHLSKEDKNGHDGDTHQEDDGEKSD
B4: Cyclin-dependent kinase 4 inhibitor C (Homo sapiens), P42773 (parent)
chain: MAEPWGNELASAAARGDLEQLTSLLQNNVNVNAQNGFGRTALQVMKLGNPEIARRLLLRGANPDLKDRTGFAVIHDAARAGFLDTLQTLLEFQADVNIEDNEGNLPLHLAAKEGHLRVVEFLVKHTASNVGHRNHKGDTACDLARLYGRNEVVSLMQANGAGGATNLQ
partner: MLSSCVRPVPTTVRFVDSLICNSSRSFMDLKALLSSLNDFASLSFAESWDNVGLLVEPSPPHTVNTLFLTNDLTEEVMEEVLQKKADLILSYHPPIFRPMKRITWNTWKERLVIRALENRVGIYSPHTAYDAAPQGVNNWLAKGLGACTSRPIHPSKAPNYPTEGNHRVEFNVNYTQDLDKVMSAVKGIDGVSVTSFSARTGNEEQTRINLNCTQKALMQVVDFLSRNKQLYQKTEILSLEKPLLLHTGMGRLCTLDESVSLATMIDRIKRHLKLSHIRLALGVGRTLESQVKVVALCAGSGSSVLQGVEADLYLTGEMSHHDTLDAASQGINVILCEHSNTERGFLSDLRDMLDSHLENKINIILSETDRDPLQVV
B5: DNA repair protein XRCC4 (Homo sapiens), Q13426 (parent)
chain: MERKISRIHLVSEPSITHFLQVSWEKTLESGFVITLTDGHSAWTGTVSESEISQEADDMAMEKGKYVGELRKALLSGAGPADVYTFNFSKESCYFFFEKNLKDVSFRLGSFNLEKVENPAEVIRELICYCLDTIAENQAKNEHLQKENERLLRDWNDVQGRFEKCVSAKEALETDLYKRFILVLNEKKTKIRSLHNKLLNAAQEREKDIKQEGETAICSEMTADRDPVYDESTDEESENQTDLSGLASAAVSKDDSIISSLDVTDIAPSRKRRQRMQRNLGTEPKMAPQENQLQEKENSRPDSSLPETSKKEHISAENMSLETLRNSSPEDLFDEI
B6: Vitamin D3 receptor (Homo sapiens), P11473 (parent)
chain: MEAMAASTSLPDPGDFDRNVPRICGVCGDRATGFHFNAMTCEGCKGFFRRSMKRKALFTCPFNGDCRITKDNRRHCQACRLKRCVDIGMMKEFILTDEEVQRKREMILKRKEEEALKDSLRPKLSEEQQRIIAILLDAHHKTYDPTYSDFCQFRPPVRVNDGGGSHPSRPNSRHTPSFSGDSSSSCSDHCITSSDMMDSSSFSNLDLSEEDSDDPSVTLELSQLSMLPHLADLVSYSIQKVIGFAKMIPGFRDLTSEDQIVLLKSSAIEVIMLRSNESFTMDDMSWTCGNQDYKYRVSDVTKAGHSLELIEPLIKFQVGLKKLNLHEEEHVLLMAICIVSPDRPGVQDAALIEAIQDRLSNTLQTYIRCRHPPPGSHLLYAKMIQKLADLRSLNEEHSKQYRCLSFQPECSMKLTPLVLEVFGNEIS
partner: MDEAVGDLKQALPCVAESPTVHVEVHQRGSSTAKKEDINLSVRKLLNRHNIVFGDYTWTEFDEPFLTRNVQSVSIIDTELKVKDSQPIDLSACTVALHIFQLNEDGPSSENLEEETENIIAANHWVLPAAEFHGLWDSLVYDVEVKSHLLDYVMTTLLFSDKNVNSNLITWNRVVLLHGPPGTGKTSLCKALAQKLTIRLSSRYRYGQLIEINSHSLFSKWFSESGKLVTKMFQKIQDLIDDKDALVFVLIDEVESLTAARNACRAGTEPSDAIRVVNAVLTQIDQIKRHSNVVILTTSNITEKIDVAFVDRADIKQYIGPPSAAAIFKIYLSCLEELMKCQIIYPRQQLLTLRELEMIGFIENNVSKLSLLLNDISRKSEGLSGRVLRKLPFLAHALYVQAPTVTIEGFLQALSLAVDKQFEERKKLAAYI
B7: Fibulin-5 (Homo sapiens), Q9UBX5 (parent)
chain: MPGIKRILTVTILALCLPSPGNAQAQCTNGFDLDRQSGQCLDIDECRTIPEACRGDMMCVNQNGGYLCIPRTNPVYRGPYSNPYSTPYSGPYPAAAPPLSAPNYPTISRPLICRFGYQMDESNQCVDVDECATDSHQCNPTQICINTEGGYTCSCTDGYWLLEGQCLDIDECRYGYCQQLCANVPGSYSCTCNPGFTLNEDGRSCQDVNECATENPCVQTCVNTYGSFICRCDPGYELEEDGVHCSDMDECSFSEFLCQHECVNQPGTYFCSCPPGYILLDDNRSCQDINECEHRNHTCNLQQTCYNLQGGFKCIDPIRCEEPYLRISDNRCMCPAENPGCRDQPFTILYRDMDVVSGRSVPADIFQMQATTRYPGAYYIFQIKSGNEGREFYMRQTGPISATLVMTRPIKGPREIQLDLEMITVNTVINFRGSSVIRLRIYVSQYPF
B8: Inactive peptidyl-prolyl cis-trans isomerase FKBP6 (Homo sapiens), O75344 (parent)
chain: MGGSALNQGVLEGDDAPGQSLYERLSQRMLDISGDRGVLKDVIREGAGDLVAPDASVLVKYSGYLEHMDRPFDSNYFRKTPRLMKLGEDITLWGMELGLLSMRRGELARFLFKPNYAYGTLGCPPLIPPNTTVLFEIELLDFLDCAESDKFCALSAEQQDQFPLQKVLKVAATEREFGNYLFRQNRFYDAKVRYKRALLLLRRRSAPPEEQHLVEAAKLPVLLNLSFTYLKLDRPTIALCYGEQALIIDQKNAKALFRCGQACLLLTEYQKARDFLVRAQKEQPFNHDINNELKKLASCYRDYVDKEKEMWHRMFAPCGDGSTAGES
B9: U4/U6 small nuclear ribonucleoprotein Prp31 (Homo sapiens), Q8WWY3 (parent)
chain: MSLADELLADLEEAAEEEEGGSYGEEEEEPAIEDVQEETQLDLSGDSVKTIAKLWDSKMFAEIMMKIEEYISKQAKASEVMGPVEAAPEYRVIVDANNLTVEIENELNIIHKFIRDKYSKRFPELESLVPNALDYIRTVKELGNSLDKCKNNENLQQILTNATIMVVSVTASTTQGQQLSEEELERLEEACDMALELNASKHRIYEYVESRMSFIAPNLSIIIGASTAAKIMGVAGGLTNLSKMPACNIMLLGAQRKTLSGFSSTSVLPHTGYIYHSDIVQSLPPDLRRKAARLVAAKCTLAARVDSFHESTEGKVGYELKDEIERKFDKWQEPPPVKQVKPLPAPLDGQRKKRGGRRYRKMKERLGLTEIRKQANRMSFGEIEEDAYQEDLGFSLGHLGKSGSGRVRQTQVNEATKARISKTLQRTLQKQSVVYGGKSTIRDRSSGTASSVAFTPLQGLEIVNPQAAEKKVAEANQKYFSSMAEFLKVKGEKSGLMST
partner: B3 partner
B10: Zinc finger protein 41 (Homo sapiens), P51814-6 (parent)
chain: MAANGDSPPWSPALAAEGRGSSCEASVSFEDVTVDFSKEEWQHLDPAQRRLYWDVTLENYSHLLSVGYQIPKSEAAFKLEQGEGPWMLEGEAPHQSCSGEAIGKMQQQGIPGGIFFHCERFDQPIGEDSLCSILEELWQDNDQLEQRQENQNNLLSHVKVLIKERGYEHKNIEKIIHVTTKLVPSIKRLHNCDTILKHTLNSHNHNRNSATKNLGKIFGNGNNFPHSPSSTKNENAKTGANSCEHDHYEKHLSHKQAPTHHQKIHPEEKLYVCTECVMGFTQKSHLFEHQRIHAGEKSRECDKSNKVFPQKPQVDVHPSVYTGEKPYLCTQCGKVFTLKSNLITHQKIHTGQKPYKCSECGKAFFQRSDLFRHLRIHTGEKPYECSECGKGFSQNSDLSIHQKTHTGEKHYECNECGKAFTRKSALRMHQRIHTGEKPYVCADCGKAFIQKSHFNTHQRIHTGEKPYECSDCGKSFTKKSQLHVHQRIHTGEKPYICTECGKVFTHRTNLTTHQKTHTGEKPYMCAECGKAFTDQSNLIKHQKTHTGEKPYKCNGCGKAFIWKSRLKIHQKSHIGERHYECKDCGKAFIQKSTLSVHQRIHTGEKPYVCPECGKAFIQKSHFIAHHRIHTGEKPYECSDCGKCFTKKSQLRVHQKIHTGEKPNICAECGKAFTDRSNLITHQKIHTREKPYECGDCGKTFTWKSRLNIHQKSHTGERHYECSKCGKAFIQKATLSMHQIIHTGKKPYACTECQKAFTDRSNLIKHQKMHSGEKRYKASD

Variants of: B1
Settings: with gmcl1_human GMCL1, Q96IK5

Q: For L626P, which “effect of a mutation on the interaction” value is on record?
A: with no effect

Variants of: B2
Settings: with sgta_human SGTA

Q: For C7G, which “effect of a mutation on the interaction” value is on record?
A: with no effect

Variants of: B3
Settings: with TLE5, Q08117-2

Q: Which “effect of a mutation on the interaction” value does the source give for R110W here?
A: with no effect

Q: Which “effect of a mutation on the interaction” value does the source give for D227Y here?
A: with no effect

Q: R112C was tested. Which “effect of a mutation on the interaction” value did it give?
A: with no effect

Variants of: B4
Settings: with nif3l_human NIF3L1, Q9GZT8

Q: V31L was tested. Which “effect of a mutation on the interaction” value did it give?
A: disrupting interaction strength

Variants of: B5
Settings: with XRCC4, Q13426-3

Q: For I134T, which “effect of a mutation on the interaction” value is on record?
A: with no effect

Variants of: B6
Settings: with pch2_human TRIP13, Q15645

Q: For G33D, which “effect of a mutation on the interaction” value is on record?
A: with no effect

Q: With E329K as the variant, how does the “effect of a mutation on the interaction” value read?
A: disrupting interaction strength

Q: For I268T, which “effect of a mutation on the interaction” value is on record?
A: with no effect

Q: C190W was tested. Which “effect of a mutation on the interaction” value did it give?
A: with no effect

Variants of: B7
Settings: with otx1_human OTX1, P32242
otx1_human OTX1, P32242, sequence (P32242 whole entry): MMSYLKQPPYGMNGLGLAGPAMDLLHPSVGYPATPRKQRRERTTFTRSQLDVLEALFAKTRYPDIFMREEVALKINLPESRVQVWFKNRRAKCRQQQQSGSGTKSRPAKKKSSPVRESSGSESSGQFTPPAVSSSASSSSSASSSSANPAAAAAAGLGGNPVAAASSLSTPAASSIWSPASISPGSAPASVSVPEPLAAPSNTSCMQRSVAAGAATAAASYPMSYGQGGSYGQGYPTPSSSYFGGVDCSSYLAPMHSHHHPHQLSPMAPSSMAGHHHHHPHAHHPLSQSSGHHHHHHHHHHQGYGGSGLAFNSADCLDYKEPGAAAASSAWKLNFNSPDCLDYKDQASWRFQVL

Q: How did the “effect of a mutation on the interaction” value turn out when V60L was run?
A: disrupting interaction strength

Variants of: B7
Settings: with meox2_human MEOX2, P50222
Target sequence in this assay (P50222 whole entry): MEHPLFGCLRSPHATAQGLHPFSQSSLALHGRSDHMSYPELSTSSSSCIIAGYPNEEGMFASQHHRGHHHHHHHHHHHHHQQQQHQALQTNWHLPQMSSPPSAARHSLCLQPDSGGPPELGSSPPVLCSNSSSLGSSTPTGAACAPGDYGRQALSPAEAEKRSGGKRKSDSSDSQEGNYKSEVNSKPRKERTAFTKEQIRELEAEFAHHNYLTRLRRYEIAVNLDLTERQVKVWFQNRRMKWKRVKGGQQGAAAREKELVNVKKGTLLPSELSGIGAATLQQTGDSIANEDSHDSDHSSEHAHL

Q: For V60L, which “effect of a mutation on the interaction” value is on record?
A: disrupting interaction strength

Variants of: B8
Settings: with lzts2_human LZTS2, Q9BRK4
lzts2_human LZTS2, Q9BRK4, sequence (Q9BRK4 whole entry): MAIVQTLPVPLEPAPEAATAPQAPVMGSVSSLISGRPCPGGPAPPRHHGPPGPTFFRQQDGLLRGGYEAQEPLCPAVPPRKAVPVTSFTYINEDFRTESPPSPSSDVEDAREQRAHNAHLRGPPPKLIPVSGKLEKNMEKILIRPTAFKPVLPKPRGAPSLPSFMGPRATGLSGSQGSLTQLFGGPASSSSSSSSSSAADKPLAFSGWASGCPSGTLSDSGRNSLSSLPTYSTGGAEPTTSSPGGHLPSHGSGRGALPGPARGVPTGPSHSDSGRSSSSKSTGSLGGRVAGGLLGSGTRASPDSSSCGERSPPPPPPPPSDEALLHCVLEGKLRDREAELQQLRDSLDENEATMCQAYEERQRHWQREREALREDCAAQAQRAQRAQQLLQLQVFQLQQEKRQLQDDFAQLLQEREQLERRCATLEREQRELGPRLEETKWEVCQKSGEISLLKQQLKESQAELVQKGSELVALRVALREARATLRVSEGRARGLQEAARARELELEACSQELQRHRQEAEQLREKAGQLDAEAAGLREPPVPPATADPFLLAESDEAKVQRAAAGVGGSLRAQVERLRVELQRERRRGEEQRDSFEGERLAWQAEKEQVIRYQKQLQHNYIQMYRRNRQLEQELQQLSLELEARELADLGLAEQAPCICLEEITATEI

Q: For F72L, which “effect of a mutation on the interaction” value is on record?
A: disrupting interaction strength

Q: How did the “effect of a mutation on the interaction” value turn out when R202H was run?
A: with no effect

Variants of: B8
Settings: with meox2_human MEOX2, P50222
Target sequence in this assay (P50222 whole entry): as the sequence (P50222 whole entry) above

Q: Which “effect of a mutation on the interaction” value does the source give for F72L here?
A: disrupting interaction strength

Q: For R202H, which “effect of a mutation on the interaction” value is on record?
A: with no effect

Variants of: B9
Settings: with TLE5, Q08117-2

Q: How did the “effect of a mutation on the interaction” value turn out when L107V was run?
A: with no effect

Variants of: B10
Settings: with fam9b_human FAM9B

Q: I125R was tested. Which “effect of a mutation on the interaction” value did it give?
A: with no effect

Q: Which “effect of a mutation on the interaction” value does the source give for C301R here?
A: with no effect

Source: IntAct's records for PubMed 25910212
